Measurements as given in US20150329637A1 (NUMAB, published 2015).
Where two headings read alike, the source gives them in different places. Each block holds one binder with its values, some of them ahead of it.

Key:
[1] = biological target: T1, cynomolgus IL23R Fc chimera (cynomolgus monkey, UniProt G7NWY5 24-353); assay: SPR; IL23R Fc chimera captured by anti-human Fc, scFv injected
T1 construct: Named only in the method sentence 'cynomolgus and mouse IL23R Fc chimera'; also called cyno IL23R; not shown: Fc part of the chimera
T1 sequence: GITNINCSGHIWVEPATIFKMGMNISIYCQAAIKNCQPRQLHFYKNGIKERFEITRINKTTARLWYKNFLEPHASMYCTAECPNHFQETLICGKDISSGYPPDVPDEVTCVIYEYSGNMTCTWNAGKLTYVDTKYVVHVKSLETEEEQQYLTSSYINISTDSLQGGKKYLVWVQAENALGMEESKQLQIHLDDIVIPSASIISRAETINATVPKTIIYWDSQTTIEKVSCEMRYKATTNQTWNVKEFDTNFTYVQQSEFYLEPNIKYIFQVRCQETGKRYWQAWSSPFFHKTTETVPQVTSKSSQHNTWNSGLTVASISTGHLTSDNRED
Method: (§1) Binding affinities of anti-IL23R scFvs were measured by surface plasmon resonance (SPR) using a MASS-1 SPR instrument (Sierra Sensors). […] After immobilization, 1 ug/ml recombinant human IL23R Fc chimera (R&D Systems, Cat. No. 1400-IR-050) was captured by the anti-human IgG antibody while a second immobilized channel served as a control where the capture was replaced by buffer. Two-fold serial dilutions of human scFvs ranging from 180 to 2.81 nM were injected into both flow cells for 3 min and dissociation of the scFvs from the chimera on the sensor chip was allowed to proceed for 700 sec. After each injection cycle, surfaces were regenerated with two 1 min injections of 10 mM glycine-HCI pH 1.5. In a similar manner the affinities for cynomolgus and mouse IL23R Fc chimera (R&D Systems, Cat. No. 1686-MR-050) was measured. The apparent dissociation (kd) and association (ka) rate constants and the apparent dissociation equilibrium constant (KD) were calculated with the MASS-1 analysis software (Analyzer, Sierra Sensors) using one-to-one Langmuir binding model.

[2] = biological target: T2, mouse IL23R Fc chimera (R&D Systems, Cat. No. 1686-MR-050) (mouse, UniProt Q8K4B4 24-372); assay: as above
T2 construct: Bought reagent; Fc part of the bought chimera not given
T2 sequence (looked up): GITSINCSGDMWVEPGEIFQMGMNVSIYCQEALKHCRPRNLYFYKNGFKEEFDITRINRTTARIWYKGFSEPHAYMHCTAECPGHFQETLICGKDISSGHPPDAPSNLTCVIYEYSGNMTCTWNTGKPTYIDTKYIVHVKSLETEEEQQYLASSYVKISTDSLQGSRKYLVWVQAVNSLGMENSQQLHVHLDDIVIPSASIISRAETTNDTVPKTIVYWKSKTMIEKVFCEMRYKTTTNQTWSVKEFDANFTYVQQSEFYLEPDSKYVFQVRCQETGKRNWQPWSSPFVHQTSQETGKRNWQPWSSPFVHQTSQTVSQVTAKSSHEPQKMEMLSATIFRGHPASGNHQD
Method: as §1

[3] = biological target: T3, recombinant human IL23R Fc chimera (R&D Systems, Cat. No. 1400-IR-050) (human, UniProt Q5VWK5 24-353); assay: as above
T3 construct: Bought reagent; not shown: Fc part (and any linker) of the bought chimera; captured by an anti-human IgG Fc antibody
T3 sequence (looked up): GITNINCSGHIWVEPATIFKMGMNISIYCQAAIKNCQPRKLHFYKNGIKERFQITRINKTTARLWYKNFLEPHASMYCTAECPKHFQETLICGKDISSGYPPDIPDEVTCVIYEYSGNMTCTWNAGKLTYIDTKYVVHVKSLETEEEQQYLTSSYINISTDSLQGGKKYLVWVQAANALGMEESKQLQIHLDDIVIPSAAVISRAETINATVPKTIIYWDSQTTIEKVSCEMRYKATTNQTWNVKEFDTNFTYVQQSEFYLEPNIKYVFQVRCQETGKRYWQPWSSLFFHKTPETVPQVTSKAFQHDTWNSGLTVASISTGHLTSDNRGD
Method: as §1

[4] = biological target: T4, mouse IL23R (as used in the SPR of PRO387 and PRO386) (mouse, UniProt Q8K4B4 24-372, limits assumed); assay: SPR
T4 sequence (looked up): T2 sequence (looked up)

[5] = biological target: mouse CD3 (mouse CD36E [sic], Sino Biologicals Inc., Cat. No. CT033-M2508H) (mouse) (UniProt P22646); assay: SPR
mouse CD3 (mouse CD36E [sic], Sino Biologicals Inc., Cat. No. CT033-M2508H) (mouse), sequence (P22646 22-108, chain 1 of 2): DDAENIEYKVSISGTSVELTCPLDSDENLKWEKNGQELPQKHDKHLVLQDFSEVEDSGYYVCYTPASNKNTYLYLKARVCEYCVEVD
mouse CD3 (mouse CD36E [sic], Sino Biologicals Inc., Cat. No. CT033-M2508H) (mouse), sequence (P04235 22-105, chain 2 of 2, further chain): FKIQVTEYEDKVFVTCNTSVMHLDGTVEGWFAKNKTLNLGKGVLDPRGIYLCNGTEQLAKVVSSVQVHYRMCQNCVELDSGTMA

[6] = biological target: mouse CD3 (mouse CD36E [sic], Sino Biologicals Inc., Cat. No. CT033-M2508H) (mouse) (UniProt P22646); assay: SPR; remark: listed apart in the source
[7] = biological target: T4, mouse IL23R (as used in the SPR of …); assay: SPR; remark: listed apart in the source

Kd [1]: 0.124 nM | koff [1]: 0.000361 s⁻¹ | kon [1]: 2.92e+06 M⁻¹ s⁻¹ | Kd [2]: 2.21 nM | koff [2]: 0.00418 s⁻¹ | kon [2]: 1.89e+06 M⁻¹ s⁻¹ | Kd [3]: 0.116 nM | koff [3]: 0.000259 s⁻¹ | kon [3]: 2.24e+06 M⁻¹ s⁻¹
B1: 14-11-D07-sc01 (scFv)
scFv: DIQMTQSPSSLSASVGDRVTITCQASENIYSFLAWYQQKPGKAPKLLIYSASKLAAGVPSRFSGSGSGTDFTLTISSLQPEDFATYYCQQTNRYSNPDIYNVFGQGTKLTVLGGGGGSGGGGSGGGGSGGGGSEVQLVESGGGLVQPGGSLRLSCAASGIDFNSNYYMCWVRQAPGKGLEWIGCIYVGSHVNTYYANWAKGRFTISRDNSKNTVYLQMNSLRAEDTAVYYCATSGSSVLYFKFWGQGTLVTVSS
notes: Humanized scFv (CDR graft on a VK1/VH3 framework); also called anti-IL23R scFv 14-11-D07-sc01

Kd [4]: 4.66 nM | koff [4]: 0.00326 s⁻¹ | kon [4]: 701000 M⁻¹ s⁻¹ | Kd [5]: 9.11 nM | koff [5]: 0.00213 s⁻¹ | kon [5]: 233000 M⁻¹ s⁻¹
B2: PRO387 (bispecific antibody)
chain: DIQMTQSPSSLSASVGDRVTITCQASENIYSFLAWYQQKPGKAPKLLIYSASKLAAGVPSRFSGSGSGTDFTLTISSLQPEDFATYYCQQTNRYSNPDIYNVFGQGTKLTVLGGGGGSEVQLVESGGGLVQPGKSLKLSCEASGFTFSGYGMHWVRQAPGRGLESVAYITSSSINIKYADAVKGRFTVSRDNAKNLLFLQMNILKSEDTAMYYCARFDWDKNYWGQGTMVTVSSGGGGSGGGGSGGGGSGGGGSDIQMTQSPSSLPASLGDRVTINCQASQDISNYLNWYQQKPGKAPKLLIYYTNKLADGVPSRFSGSGSGRDSSFTISSLESEDIGSYYCQQYYNYPWTFGPGTKLEIKRGGGGSEVQLVESGGGLVQPGGSLRLSCAASGIDFNSNYYMCWVRQAPGKGLEWIGCIYVGSHVNTYYANWAKGRFTISRDNSKNTVYLQMNSLRAEDTAVYYCATSGSSVLYFKFWGQGTLVTVSS
notes: also called PRO387 (scDb); surrogate scDb

Kd [6]: 11.5 nM | koff [6]: 0.00196 s⁻¹ | kon [6]: 171000 M⁻¹ s⁻¹ | Kd [7]: 0.583 nM | koff [7]: 0.000533 s⁻¹ | kon [7]: 915000 M⁻¹ s⁻¹
B3: PRO386 (bispecific antibody)
light: DIQMTQSPSSLPASLGDRVTINCQASQDISNYLNWYQQKPGKAPKLLIYYTNKLADGVPSRFSGSGSGRDSSFTISSLESEDIGSYYCQQYYNYPWTFGPGTKLEIKRRTVAAPSVFIFPPSDEQLKSGTASVVCLLNNFYPREAKVQWKVDNALQSGNSQESVTEQDSKDSTYSLSSTLTLSKADYEKHKVYACEVTHQGLSSPVTKSFNRGECGGGGSGGGGSHMDIQMTQSPSSLSASVGDRVTITCQASENIYSFLAWYQQKPGKAPKLLIYSASKLAAGVPSRFSGSGSGTDFTLTISSLQPEDFATYYCQQTNRYSNPDIYNVFGQGTKLTVLGGGGGSGGGGSGGGGSGGGGSEVQLVESGGGLVQPGGSLRLSCAASGIDFNSNYYMCWVRQAPGKGLEWIGCIYVGSHVNTYYANWAKGRFTISRDNSKNTVYLQMNSLRAEDTAVYYCATSGSSVLYFKFWGQGTLVTVSS
heavy: EVQLVESGGGLVQPGKSLKLSCEASGFTFSGYGMHWVRQAPGRGLESVAYITSSSINIKYADAVKGRFTVSRDNAKNLLFLQMNILKSEDTAMYYCARFDWDKNYWGQGTMVTVSSASTKGPSVFPLAPSSKSTSGGTAALGCLVKDYFPEPVTVSWNSGALTSGVHTFPAVLQSSGLYSLSSVVTVPSSSLGTQTYICNVNHKPSNTKVDKKVEPKSCGGGGSGGGGSHMDIQMTQSPSSLSASVGDRVTITCQASENIYSFLAWYQQKPGKAPKLLIYSASKLAAGVPSRFSGSGSGTDFTLTISSLQPEDFATYYCQQTNRYSNPDIYNVFGQGTKLTVLGGGGGSGGGGSGGGGSGGGGSEVQLVESGGGLVQPGGSLRLSCAASGIDFNSNYYMCWVRQAPGKGLEWIGCIYVGSHVNTYYANWAKGRFTISRDNSKNTVYLQMNSLRAEDTAVYYCATSGSSVLYFKFWGQGTLVTVSS
notes: Heterodimer; bispecific and trivalent (one anti-CD3 Fab, two anti-IL23R scFvs); also called PRO386 (Tribody); Fab-scFv fusion surrogate

Kd [5]: 11.4 nM | koff [5]: 0.00266 s⁻¹ | kon [5]: 233000 M⁻¹ s⁻¹
B4: PRO400 (Fab, V domains shown)
VH: EVQLVESGGGLVQPGKSLKLSCEASGFTFSGYGMHWVRQAPGRGLESVAYITSSSINIKYADAVKGRFTVSRDNAKNLLFLQMNILKSEDTAMYYCARFDWDKNYWGQGTMVTVSS
VL: DIQMTQSPSSLPASLGDRVTINCQASQDISNYLNWYQQKPGKAPKLLIYYTNKLADGVPSRFSGSGSGRDSSFTISSLESEDIGSYYCQQYYNYPWTFGPGTKLEIKR
